Positions count from the first letter of the chain named.
B1: Ang2-BDBC6, soluble protein (designed binder)
chain: FRDCAEVFKSGHTTNGIYTLREGRGDNVDIKAYCDMEAGGGGWTIIQRREDGSVDFQRTWKEYKVGFGNPSGEYWLGNEFVSQLTNQQRYVLKIHLKDWEGNEAYSLYEHFYLSSEELNYRIHLKGLTGTAGKISSISQPGNDFSTKDGDNDKCICKCSQMLTGGWWFDACGPSNLNGMYYPQRQNTNKFNGIKWYYWKGSGYSLKATTMMIRPADF
notes: also called Ang2-BD bi-specific variant; source: Pichia (Multi-Copy Pichia Expression Kit), purified from yeast culture supernatant (HisTrap, Superdex 200)
B2: Ang2-BDBC5, soluble protein (designed binder)
chain: B1 chain with R21N, E22T, G23C, N27C, V28L, D29P
notes: as for B1
B3: Ang2-BDBC10, soluble protein (designed binder)
chain: B1 chain with R21Y, E22P, V28P
notes: as for B1
B4: Ang2-BDWT, soluble protein (domain or fragment, UniProt O15123 281-496, looked up)
chain: FRDCAEVFKSGHTTNGIYTLTFPNSTEEIKAYCDMEAGGGGWTIIQRREDGSVDFQRTWKEYKVGFGNPSGEYWLGNEFVSQLTNQQRYVLKIHLKDWEGNEAYSLYEHFYLSSEELNYRIHLKGLTGTAGKISSISQPGNDFSTKDGDNDKCICKCSQMLTGGWWFDACGPSNLNGMYYPQRQNTNKFNGIKWYYWKGSGYSLKATTMMIRPADF
notes: The limits 281-496 are stated for the Ang2-BDWT gene; also called wild-type Ang2 BD; mono-specific Ang2-BDWT; source: Pichia (Multi-Copy Pichia Expression Kit), purified from yeast culture supernatant (HisTrap, Superdex 200)

Experiments:
[1] = biological target: T1, recombinant αvβ3 integrin (human, UniProt P06756 31-992; P05106 27-718); experiment: SPR; αvβ3 integrin immobilized by amine coupling (GLC chip), 12.5 to 200 nM Ang2-BD variants as analytes, 25 °C, IBB; 1:1 Langmuir model; details: both partners purified
T1 construct: human integrin αv subunit (Phe31-Val992); human integrin β3 subunit (Gly27-Asp718); also called solubilized αvβ3 integrin; αvβ3 integrin extracellular domain; source: bought: R&D Systems

[2] = biological target: Tie2 expressed on TIME cells (human (endogenous in TIME cells), UniProt Q02763 23-1124); experiment: cell-based or functional assay
[3] = biological target: αvβ3 integrin expressed on TIME cells (human (endogenous in TIME cells), UniProt P06756 31-1048; P05106 27-788); experiment: cell-based or functional assay
[4] = biological target: T2, recombinant α5β1 integrin (human, UniProt P08648 42-995; P05556 21-728); experiment: SPR; integrins other than αvβ3 immobilized by amine coupling, 1 μM of the Ang2-BD variants as analyte, 25 °C, IBB; details: both partners purified
T2 construct: human integrin α5 subunit, extracellular domain; human integrin β1 subunit, extracellular domain; source: bought: R&D Systems

[5] = biological target: Tie2, immobilized for SPR (human, UniProt Q02763 23-1124, Limits of the immobilized Tie2 are not printed. Taken as the mature extracellular domain (the text says extracellular domain of rhTie2 in the dual SPR experiment), ending at Lys745 as in commercial rh); experiment: SPR; Tie2 immobilized, Ang2-BD variants as analytes; ProteOn XPR36; steady state fit; as previously described [54]; details: both partners purified
[6] = biological target: T3, recombinant αvβ1 integrin (human, UniProt P06756 31-992; P05556 21-728); experiment: SPR; αvβ5, αvβ1, αvβ6, αvβ8 integrins immobilized, 62.5 to 1000 nM Ang2-BDBC5 as analyte, 25 °C, IBB; two-state binding model; details: both partners purified
T3 construct: human integrin αv subunit, extracellular domain; human integrin β1 subunit, extracellular domain; source: bought: R&D Systems

[7] = biological target: T4, recombinant αvβ8 integrin (human, UniProt P06756 31-992; P26012 43-684); experiment: as above; details: both partners purified
T4 construct: human integrin αv subunit, extracellular domain; human integrin β8 subunit, extracellular domain; source: bought: R&D Systems

[8] = biological target: T5, recombinant αvβ6 integrin (human, UniProt P06756 31-992; P18564 22-709); experiment: as above; details: both partners purified
T5 construct: human integrin αv subunit, extracellular domain; human integrin β6 subunit, extracellular domain; source: bought: R&D Systems

[9] = biological target: T6, recombinant αvβ5 integrin (human, UniProt P06756 31-992; P18084 24-719); experiment: as above; details: both partners purified
T6 construct: human integrin αv subunit, extracellular domain; human integrin β5 subunit, extracellular domain; source: bought: R&D Systems

Chain of αvβ3 integrin expressed on TIME cells (P06756 31-1048, chain 1 of 2): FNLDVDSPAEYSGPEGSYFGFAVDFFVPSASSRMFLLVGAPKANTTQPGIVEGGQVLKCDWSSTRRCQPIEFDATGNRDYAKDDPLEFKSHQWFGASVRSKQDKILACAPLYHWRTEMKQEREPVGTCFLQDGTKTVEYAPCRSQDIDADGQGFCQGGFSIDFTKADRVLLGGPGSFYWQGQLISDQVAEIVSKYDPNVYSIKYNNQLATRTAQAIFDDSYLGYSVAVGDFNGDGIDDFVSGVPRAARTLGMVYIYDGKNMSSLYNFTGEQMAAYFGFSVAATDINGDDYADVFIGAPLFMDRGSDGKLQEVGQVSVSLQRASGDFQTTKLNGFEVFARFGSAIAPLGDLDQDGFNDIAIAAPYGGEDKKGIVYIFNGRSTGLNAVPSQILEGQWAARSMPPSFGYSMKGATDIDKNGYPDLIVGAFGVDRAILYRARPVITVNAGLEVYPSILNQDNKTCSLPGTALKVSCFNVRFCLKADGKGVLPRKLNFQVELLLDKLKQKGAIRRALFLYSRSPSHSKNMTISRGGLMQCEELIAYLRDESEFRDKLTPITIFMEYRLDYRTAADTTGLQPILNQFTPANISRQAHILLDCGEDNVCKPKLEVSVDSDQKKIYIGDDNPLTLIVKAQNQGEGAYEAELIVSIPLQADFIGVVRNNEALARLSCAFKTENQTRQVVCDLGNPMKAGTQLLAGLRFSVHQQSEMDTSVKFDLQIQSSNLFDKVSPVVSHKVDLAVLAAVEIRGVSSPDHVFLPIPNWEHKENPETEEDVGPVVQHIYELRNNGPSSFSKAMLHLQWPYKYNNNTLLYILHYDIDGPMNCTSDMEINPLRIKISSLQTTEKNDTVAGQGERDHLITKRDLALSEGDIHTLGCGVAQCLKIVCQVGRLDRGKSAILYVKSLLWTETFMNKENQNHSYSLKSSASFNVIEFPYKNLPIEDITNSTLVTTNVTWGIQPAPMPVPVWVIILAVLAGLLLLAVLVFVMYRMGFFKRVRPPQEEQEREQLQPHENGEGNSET
Chain of αvβ3 integrin expressed on TIME cells (P05106 27-788, chain 2 of 2): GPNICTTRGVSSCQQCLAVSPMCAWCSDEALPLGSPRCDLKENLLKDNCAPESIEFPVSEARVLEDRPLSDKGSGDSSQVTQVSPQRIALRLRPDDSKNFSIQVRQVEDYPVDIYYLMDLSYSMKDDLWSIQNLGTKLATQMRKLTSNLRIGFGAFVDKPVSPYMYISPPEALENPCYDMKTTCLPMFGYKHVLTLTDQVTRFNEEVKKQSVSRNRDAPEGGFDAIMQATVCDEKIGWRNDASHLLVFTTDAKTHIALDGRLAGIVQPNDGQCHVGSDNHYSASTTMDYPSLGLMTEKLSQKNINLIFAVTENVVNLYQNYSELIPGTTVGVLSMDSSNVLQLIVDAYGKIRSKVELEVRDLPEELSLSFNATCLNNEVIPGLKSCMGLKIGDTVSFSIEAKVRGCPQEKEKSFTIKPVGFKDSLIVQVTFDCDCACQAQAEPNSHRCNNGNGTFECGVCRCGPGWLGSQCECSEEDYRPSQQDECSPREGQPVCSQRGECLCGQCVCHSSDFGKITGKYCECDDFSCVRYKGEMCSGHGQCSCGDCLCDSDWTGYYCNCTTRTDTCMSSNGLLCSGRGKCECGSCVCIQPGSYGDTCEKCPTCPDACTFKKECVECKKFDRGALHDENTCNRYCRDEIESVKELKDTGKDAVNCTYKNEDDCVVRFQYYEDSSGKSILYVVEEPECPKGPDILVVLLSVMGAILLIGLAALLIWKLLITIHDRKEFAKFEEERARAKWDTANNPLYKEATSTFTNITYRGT
T2 sequence (P08648 42-995, chain 1 of 2): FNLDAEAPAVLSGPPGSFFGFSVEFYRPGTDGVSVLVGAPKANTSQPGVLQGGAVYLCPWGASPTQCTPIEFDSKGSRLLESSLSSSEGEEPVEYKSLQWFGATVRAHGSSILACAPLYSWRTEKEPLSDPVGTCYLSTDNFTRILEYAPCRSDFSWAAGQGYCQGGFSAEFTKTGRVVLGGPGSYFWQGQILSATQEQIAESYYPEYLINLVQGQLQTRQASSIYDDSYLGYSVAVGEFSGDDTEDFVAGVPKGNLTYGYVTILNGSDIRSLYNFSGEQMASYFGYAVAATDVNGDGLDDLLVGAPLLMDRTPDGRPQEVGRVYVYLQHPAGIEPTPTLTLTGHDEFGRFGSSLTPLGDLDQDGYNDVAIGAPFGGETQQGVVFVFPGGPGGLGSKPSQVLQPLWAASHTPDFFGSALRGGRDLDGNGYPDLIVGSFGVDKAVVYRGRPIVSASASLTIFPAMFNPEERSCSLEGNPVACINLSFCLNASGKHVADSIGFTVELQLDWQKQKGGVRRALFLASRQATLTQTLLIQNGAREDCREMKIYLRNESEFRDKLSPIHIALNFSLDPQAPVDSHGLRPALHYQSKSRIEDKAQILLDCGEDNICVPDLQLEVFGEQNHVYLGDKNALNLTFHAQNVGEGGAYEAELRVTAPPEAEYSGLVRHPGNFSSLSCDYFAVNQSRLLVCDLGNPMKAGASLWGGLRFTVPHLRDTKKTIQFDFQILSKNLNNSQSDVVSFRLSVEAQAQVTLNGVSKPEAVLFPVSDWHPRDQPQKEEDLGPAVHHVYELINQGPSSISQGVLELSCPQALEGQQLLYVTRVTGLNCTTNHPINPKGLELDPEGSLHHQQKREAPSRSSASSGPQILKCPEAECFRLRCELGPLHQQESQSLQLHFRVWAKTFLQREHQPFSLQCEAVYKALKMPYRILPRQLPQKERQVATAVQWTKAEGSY
T2 sequence (P05556 21-728, chain 2 of 2): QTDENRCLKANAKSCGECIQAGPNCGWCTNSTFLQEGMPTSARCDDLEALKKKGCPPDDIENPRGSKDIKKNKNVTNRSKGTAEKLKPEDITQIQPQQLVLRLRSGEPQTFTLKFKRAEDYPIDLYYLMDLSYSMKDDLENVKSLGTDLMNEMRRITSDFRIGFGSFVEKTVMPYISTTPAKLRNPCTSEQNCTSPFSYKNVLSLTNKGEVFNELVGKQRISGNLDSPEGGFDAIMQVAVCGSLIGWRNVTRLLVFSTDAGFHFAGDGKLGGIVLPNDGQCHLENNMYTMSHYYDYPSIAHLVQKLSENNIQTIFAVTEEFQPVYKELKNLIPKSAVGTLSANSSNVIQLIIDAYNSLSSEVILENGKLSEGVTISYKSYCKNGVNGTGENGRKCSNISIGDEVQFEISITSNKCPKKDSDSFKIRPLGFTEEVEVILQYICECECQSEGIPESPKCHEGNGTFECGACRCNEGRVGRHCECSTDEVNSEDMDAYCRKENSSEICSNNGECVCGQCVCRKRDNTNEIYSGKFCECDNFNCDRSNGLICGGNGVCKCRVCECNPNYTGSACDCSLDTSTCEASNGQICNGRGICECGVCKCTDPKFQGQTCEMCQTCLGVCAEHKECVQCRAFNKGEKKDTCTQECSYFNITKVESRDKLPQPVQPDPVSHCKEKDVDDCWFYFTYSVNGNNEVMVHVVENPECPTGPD
Chain of Tie2, immobilized for SPR (Q02763 23-1124): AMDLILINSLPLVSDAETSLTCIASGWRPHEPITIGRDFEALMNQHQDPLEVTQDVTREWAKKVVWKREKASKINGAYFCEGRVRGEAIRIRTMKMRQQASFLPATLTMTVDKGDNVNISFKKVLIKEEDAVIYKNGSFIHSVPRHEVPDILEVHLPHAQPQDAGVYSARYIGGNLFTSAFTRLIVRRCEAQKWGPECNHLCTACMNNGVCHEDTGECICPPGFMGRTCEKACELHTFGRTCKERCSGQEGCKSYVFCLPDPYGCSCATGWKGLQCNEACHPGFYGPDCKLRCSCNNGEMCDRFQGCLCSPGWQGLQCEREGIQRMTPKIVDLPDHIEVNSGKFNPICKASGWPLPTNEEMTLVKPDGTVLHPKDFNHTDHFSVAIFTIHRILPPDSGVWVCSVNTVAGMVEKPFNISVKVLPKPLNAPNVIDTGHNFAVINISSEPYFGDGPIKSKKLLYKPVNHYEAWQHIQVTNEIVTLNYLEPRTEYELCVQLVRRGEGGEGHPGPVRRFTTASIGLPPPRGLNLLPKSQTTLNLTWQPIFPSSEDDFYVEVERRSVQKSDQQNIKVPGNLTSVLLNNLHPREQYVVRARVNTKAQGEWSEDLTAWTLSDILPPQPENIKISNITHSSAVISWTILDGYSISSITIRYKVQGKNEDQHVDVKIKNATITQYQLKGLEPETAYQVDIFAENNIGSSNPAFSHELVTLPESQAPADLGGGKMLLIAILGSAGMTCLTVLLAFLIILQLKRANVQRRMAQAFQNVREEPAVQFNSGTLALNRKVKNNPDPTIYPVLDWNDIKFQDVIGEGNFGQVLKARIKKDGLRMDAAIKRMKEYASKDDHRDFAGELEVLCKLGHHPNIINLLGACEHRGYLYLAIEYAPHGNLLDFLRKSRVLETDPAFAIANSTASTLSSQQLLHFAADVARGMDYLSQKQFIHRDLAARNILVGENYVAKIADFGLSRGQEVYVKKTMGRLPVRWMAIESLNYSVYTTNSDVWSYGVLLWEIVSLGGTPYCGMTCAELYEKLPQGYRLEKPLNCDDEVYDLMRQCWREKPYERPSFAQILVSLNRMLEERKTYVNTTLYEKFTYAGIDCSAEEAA
Chain of Tie2 expressed on TIME cells (Q02763 23-1124): as above

Binder	Kd [1]	koff [1]	kon [1]	decrease in Tie2 phosphorylation intensity, TIME cells on vitronectin, 500 ng/ml FL-Ang1 with 1 μM variant (blocks FL-Ang1 on Tie2) [2]	decrease in adhesion of TIME cells to vitronectin-coated plates, 1 μM variant, with 500 ng/ml FL-Ang1 (blocks αvβ3 integrin on vitronectin) [3]	decrease in adhesion of TIME cells to vitronectin-coated plates, 1 μM variant, without FL-Ang1 (blocks αvβ3 integrin on vitronectin) [3]	binding result [4]	Kd [5]	also measured
B1	2.97 nM	0.000236 s⁻¹	79400 M⁻¹ s⁻¹	64%	35%	39%	binds	1260 nM	
B2	14.9 nM	0.000444 s⁻¹	29900 M⁻¹ s⁻¹	67%	53%	30%	binds	1360 nM	Kd [6]: 550 nM; Koff1 (two-state model, step 1) [6]: 0.00629 s⁻¹; Koff2 (two-state model, step 2) [6]: 0.00197 s⁻¹; Kon1 (two-state model, step 1) [6]: 11400 M⁻¹ s⁻¹; Kon2 (two-state model, step 2) [6]: 0.00304 s⁻¹; Kd [7]: 138 nM; Koff1 (two-state model, step 1) [7]: 0.00505 s⁻¹; Koff2 (two-state model, step 2) [7]: 0.00215 s⁻¹; Kon1 (two-state model, step 1) [7]: 36600 M⁻¹ s⁻¹; Kon2 (two-state model, step 2) [7]: 0.0024 s⁻¹; Kd [8]: 364 nM; Koff1 (two-state model, step 1) [8]: 0.00835 s⁻¹; Koff2 (two-state model, step 2) [8]: 0.00106 s⁻¹; Kon1 (two-state model, step 1) [8]: 22900 M⁻¹ s⁻¹; Kon2 (two-state model, step 2) [8]: 0.0032 s⁻¹; Kd [9]: 65 nM; Koff1 (two-state model, step 1) [9]: 0.00259 s⁻¹; Koff2 (two-state model, step 2) [9]: 0.00035 s⁻¹; Kon1 (two-state model, step 1) [9]: 39800 M⁻¹ s⁻¹; Kon2 (two-state model, step 2) [9]: 0.00544 s⁻¹
B3	4.17 nM	0.000429 s⁻¹	103000 M⁻¹ s⁻¹	67%	37%	47%	binds	950 nM	
B4								660 nM	
